The subject of assay [1] is TN7 yeast line. The experiment in a line: Expression of SSL genes in TN7 yeast line, hexane extractable metabolites by GC-MS. Type of assay: cell-based. The text has this: (§1) FIG. 6 depicts the functional characterization of the squalene synthase-like genes of Botryococcus braunii race B. The squalene synthase-like genes, SSL-1, SSL-2 and SSL-3, were expressed in yeast separately (SSL-1 (B), SSL-2(C) or SSL-3(D)) or in combinations (SSL-1+SSL-2(E), SSL-1+SSL-3(F)) and the hexane extractable metabolites profiled by GC-MS. The chemical profile of yeast not engineered with any gene constructs serves as the background control (A). […] Data (J) represents mean±S.E.M. obtained from three independent experiments (n=3). The chromatograms (A-I) are also annotated for the elution behavior of botryococcene (1), squalene (2), presqualene alcohol (3) and bisfarnesyl ether (4).
FIG. 10 includes a comparison of botryococcene production in yeast engineered with different configurations of SSL-1 and SSL-3. Yeast line TN7 was engineered with the SSL-1 and SSL-3 genes on separate plasmids (squares), with gene fusions (SSL-1 fused to SSL-3 via a triplet repeat of GGSG (triangles), or vice versa (diamonds)), or with 63 or 71 amino acids of the carboxy terminus of the Botryococcus squalene synthase, sequences containing a membrane spanning domain, appended to the carboxy termini of the SSL-1 and SSL-3 enzymes, respectively (circles). The data represents mean±S.E.M.
The various recombinant yeast expression vectors were introduced into the TN7 yeast line via lithium acetate transformation, followed by selection for uracil and leucine auoxtrophic growth (Takahashi, et al. (2007)). […] Individual colonies of TN7 and the various TN7-transformants were subsequently grown in 25 ml of YPDE (nutrient rich) or Yeast Synthetic Drop-out medium (selection) for the indicated time at 25° C. before analyzing the cultures for production of novel triterpene components. In brief, 1 ml aliquots of the culture were combined with 1 ml of acetone, vigorously mixed, and incubated at room temperature for 10 min. One ml of hexane was added and mixed vigorously for 60 sec. […] The dried extract was resuspended in 50-500 μl of n-hexane and a 1 μl aliquot analyzed by GC-MS as described above. […]

Assay [2] can be described thus: Purified bacterial-expressed enzymes incubated with FPP, products by GC-MS or TLC/scintillation counting. Type of assay: biochemical. Conditions: for squalene or botryococcene biosynthesis by purified enzyme in vitro: FPP as substrate, enzyme assayed alone.
Text: as §1
The recombinant vectors were transformed into E. coli strain BL21(DE3) according to the manufacturer's recommendations (Novagen). The selected lines were grown with kanamycin selection at 37° C. with vigorous shaking until the cultures reached an optical density of ˜0.8 (OD600 nm), then expression of the corresponding SSL gene induced by addition of 0.5 mM isopropylthio-β-D-galactoside (IPTG) and the cultures incubate for an additional 3 to 20 h with shaking at room temperature. One hundred ml of the culture was subject to centrifugation at 4,000 g for 10 min, the pelleted cells resuspended in 10 ml of lysis buffer containing 50 mM NaH2PO4, pH 7.8, 300 mM NaCl, 10 mM imidazole, 1 mM MgCl2, 1 mM PMSF, 1% glycerol (v/v), then sonicated 4× for 10 sec with a microprobe sonicator at 60% maximum power. The samples were cooled on ice for 2 min between sonication treatments. The sonicate was centrifuged at 16,000 g for 10 min at 4° C. and the supernatant used for purification of the hexa-histidine tagged enzymes.
Purification of the bacterial expressed enzymes was afforded by the amino-terminal hexa-histidine tag using His-Select Cobalt affinity gel (Sigma) columns according the manufacturer's recommendations. Recovery of proteins with the expected molecular sizes was determined by SDS-PAGE. The purified protein fractions were concentrated using Amicon Ultra (0.5 ml, 10K) centrifugation filter units and stored in 300 mM NaCl, 20 mM Tris-HCl pH 7.5, 5 mM dithiothreitol, 2 mM MgCL2, 50% glycerol (v/v) at −20° C. for 2-3 weeks without noticeable loss of activity.
Typical enzyme assays were initiated by mixing aliquots of purified enzyme with 50 mM Mops, pH 7.3, 20 mM MgCl2, 2.5 mM 2-mercaptoethanol, 10 μM [1-^3H]-FPP (˜2×10^5 dpm total), and 2 mM NADPH in total reaction volume of 50 μl. Reactions were incubated at 37° C. for 1 h and then extracted with 100 μl n-hexane or 100 ul MTBE. Forty μl of the n-hexane or MTBE extract was then spotted onto silica TLC plates with authentic standards of botryococcene and squalene and developed with n-hexane, or standards of bisfarnesyl ether and developed with n-hexane:MTBE, 25:1. The standards were visualized with iodine vapors and TLC zones corresponding to the standards were scrapped and analyzed by scintillation spectrometry. If Botryococcus lysate was added to enzyme assays, typically 5 μl of lysate (corresponding to 10 μg total protein) prepared from B. braunii cells according to Okada et al. (1) was added. […] Extracts were resuspended in 50 μl hexane and an aliquot analyzed by GC-MS with a Varian CP-3800 GC coupled to a Varian Saturn 2200 MS/MS (Varian Medical Systems) using a Supelco SLB-5 ms fused silica capillary column (30 m×0.25 mm×0.25 μM film thickness, Supelco). […]

The mark [3] stands for this setting: SSL-2 incubated by itself, NADPH-dependent.

Results on two molecules are retold here after patent publication US8822187B1, “Polypeptides, nucleic acid molecules, and methods for synthesis of triterpenes” (University of Kentucky Research Foundation, priority 2011, dated 2014).

Entries after “also recorded” stand apart in the source; their conditions may differ.

B1: Botryococcus braunii race B squalene synthase-like 1 (SSL-1), wild type, hexa-histidine tagged, SEQ ID NO: 2 (Botryococcus braunii) (protein)
chain: MTMHQDHGVMKDLVKHPNEFPYLLQLAATTYGSPAAPIPKEPDRAFCYNTLHTVSKGFPRFVMRLPQELQDPICIFYLLLRALDTVEDDMNLKSETKISLLRVFHEHCSDRNWSMKSDYGIYADLMERFPLVVSVLEKLPPATQQTFRENVKYMGNGMADFIDKQILTVDEYDLYCHYVAGSCGIAVTKVIVQFNLATPEADSYDFSNSLGLLLQKANIITDYNEDINEEPRPRMFWPQEIWGKYAEKLADFNEPENIDTAVKCLNHMVTDAMRHIEPSLKGMVYFTDKTVFRALALLLVTAFGHLSTLYNNPNVFKEKVRQRKGRIARLVMSSRNVPGLFRTCLKLANNFESRCKQETANDPTVAMTIKRLQSIQATCRDGLAKYDTPSGLKSFCAAPTPTK
On to B1, for which the “products accumulating in yeast” value in assay [1] (gene expressed separately in yeast) is on record as “accumulated to significant levels”. The “squalene or botryococcene biosynthesis by purified enzyme in vitro” value in assay [2] was “did not exhibit either squalene nor botryococcene biosynthesis”.

B2: SSL-2: Botryococcus braunii race B squalene synthase-like 2 enzyme; bacterial form is truncated SSL-2-tr2 (protein)
chain: MVKLVEVLQHPDEIVPILQMLHKTYRAKRSYKDPGLAFCYGMLQRVSRSFSVVIQQLPDELRHPICVFYLILRALDTVEDDMNLPNEVKIPLLRTFHEHLFDRSWKLKCGYGPYVDLMENYPLVTDVFLTLSPGAQEVIRDSTRRMGNGMADFIGKDEVHSVAEYDLYCHYVAGLVGSAVAKIFVDSGLEKENLVAEVDLANNMGQFLQKTNVIRDYLEDINEEPAPRMFWPREIWGKYAQELADFKDPANEKAAVQCLNHMVTDALRHCEIGLNVIPLLQNIGILRSCLIPEVMGLRTLTLCYNNPQVFRGVVKMRRGETAKLFMSIYDKRSFYQTYLRLANELEAKCKGEASGDPMVATTLKHVHGIQKSCKAALSSKELLAKSGSALTDDPAIRLLLLVGVVAYFAYAFNLGDVRGEHGVRALGSILDLSQKGLAVASVALLLLVLLARSRLPLLTSASSKQ
For the molecule B2, the “squalene accumulating, share of the total” value in assay [1] (expressed in yeast) is ~10 % of the total. Further, the “squalene or botryococcene biosynthesis by purified enzyme in vitro” value in assay [2] is “neither bacterial-expressed, purified enzymes exhibited any botryococcene biosynthesis; also recorded: low capacity for squalene biosynthesis”. Besides, in assay [2] (setting [3]), the “bisfarnesyl ether share of products” value was around 90% and the “squalene share of products” value is on record as around 10%.
